Measured values taken from US11739161B2, “Methods for treating and diagnosing prostate cancer” (Tufts Medical Center, Inc., priority 2017, dated 2023).

How the values were obtained:
[1] = test system: AKT and S6 phosphorylation in PC-3 cells; assay: RNASE4-induced phosphorylation of AKT and S6 (immunoblot); format: cell-based, human; details: serum-starved PC-3, RNASE4 1 μg/ml, time course
Method: FIGS. 11A-F. RNASE4 induces PC-3 cell proliferation and phosphorylation of AKT and S6. (A) Exogenous RNASE4 (1 μg/ml) stimulates PC-3 cells proliferation in the presence of 2% FBS. Cell numbers were determined by MTT assay. (B) Time course of AKT and S6 phosphorylation of serum-starved PC-3 cells by RNASE4 (1 μg/ml). Left panels, immunoblots; right panels, quantification of p-AKT and p-S6 normalized to total AKT and S6 by Image J. (C) Effect of AKT inhibitor MK-2206, PI3K inhibitors LY294002 and Wortmannin, and mTOR inhibitor Rapamycin on RNASE4-induced PC-3 cell proliferation. Cells were pre-incubated with the inhibitors at the indicated concentrations for 1 hour prior to be stimulated by RNASE4 (1 μg/ml) for 3 days. Cell numbers were determined by MTT assay. (D) Human phospho-RTK antibody array analysis of starved PC-3 cells treated with or without 1 μg/ml RNASE4 for 5 minutes. (E) Time course of AXL phosphorylation stimulated by RNASE4 in PC-3 cells. Serum-starved PC-3 cells were treated with 1 μg/ml RNASE4 for different time. Cell lysates were analyzed for total AXL and phopho-AXL by immunoblotting. Left panels, immunoblots; right panel, quantification phospho-AXL normalized to total AXL by Image J analysis. (F) Effect of AXL inhibitor R428 on RNASE4-induced PC-3 cell proliferation. […] Cell numbers were determined by MTT assay. […]

DU145 cells = assay: Cell cycle analysis by flow cytometry; format: cell-based, human; details: exogenous RNASE4 1 μg/ml
Method: FIGS. 10A-E. RNASE4 induces prostate cancer cell proliferation and phosphorylation of AKT and S6. (A and B) Exogenous RNASE4 (1 μg/ml) stimulates cell proliferation (A) and cell cycle progression (B) of DU145 cells cultured in the presence of 2% FBS. Cell numbers were determined by MTT assay. […] (C) Time course of AKT and S6 phosphorylation of serum-starved DU145 cells by RNASE4 (1 μg/ml). Left panels, immunoblots; right panels, quantification of p-AKT and p-S6 normalized to total AKT and S6 by Image J analysis. […] Cells were pre-incubated with the inhibitors at the indicated concentrations for 1 hour prior to be stimulated by 1 μg/ml of RNASE4 for 5 minutes. Top panels, immunoblots; bottom panels, Image J quantification of p-AKT and p-S6 normalized to total AKT and S6. (E) Effect of AKT inhibitor MK-2206, PI3K inhibitors Wortmannin and LY294002, and mTOR inhibitor Rapamycin on RNASE4-induced cell proliferation. DU145 cells were serum-starved overnight, incubated with the inhibitors for 1 hour, and then treated with RNASE4 (1 μg/ml) for three days. Cell numbers were determined by MTT assay. Data shown are from a representative experiments in triplicates of 3 independent repeats. […]
FIGS. 17A-C. […] Cell numbers were determined by a Coulter counter. […] Cell cycle status was determined by flow cytometry. […] Bottom panels, tube length and number of loops counted from 5 randomly selected areas. […]

B1: RNASE4: recombinant human RNASE4 protein from pET11 expression in E. coli, purified by reversed-phase HPLC; added exogenously (protein, UniProt P34096 29-147, looked up)
Ribonuclease 4: QDGMYQRFLRQHVHPEETGGSDRYCNLMMQRRKMTLYHCKRFNTFIHEDIWNIRSICSTTNIQCKNGKMNCHEGVVKVTDCRDTGSSRAPNCRYRAIASTRRVVIACEGNPQVPVHFDG
activation (phosphorylation) of AKT and S6 [1]: rapidly and continuously activated
G0/G1 population (DU145 cells): decreased
G2/S/M phase population (DU145 cells): increased
